Source: IntAct's records for PubMed 16501113

B1: Probable early E4 11 kDa protein (Human adenovirus C serotype 5 (HAdV-5)), P04489 (parent)
chain: MIRCLRLKVEGALEQIFTMAGLNIRDLLRDILRRWRDENYLGMVEGAGMFIEEIHPEGFSLYVHLDVRAVCLLEAIVQHLTNAIICSLAVEFDHATGGERVHLIDLHFEVLDNLLE

Variants of: B1
Conditions: with PML

Variant	effect of a mutation on the interaction
MIRCLRLKVAGALEQIFTMAGLNIRDLLRDILRRWRDENYLGMVEGAGMFIEEIHPEGFSLYVHLDVRAVCLLEAIVQHLTNAIICSLAVEFDHATGGERVHLIDLHFEVLDNLLE	decreasing interaction
MIRCLRLKVEGALEQIFTMAGLNIRDLLRDILRRWRDENYLGMVEGAGMFIEEIHPEGFSLYVHLDVRAVCLLEAIVQHLTAAIICSLAVEFDHATGGERVHLIDLHFEVLDNLLE	disrupting interaction
MIRCLRLKVEGALEQIFTMAGLNIRDLLRDILRRWRDENYLGMVEGAGMFIEEIHPEGFSLYVHLDVRAVCLLAAIVQHLTNAIICSLAVEFDHATGGERVHLIDLHFEVLDNLLE	decreasing interaction
MIRALRLKVEGALEQIFTMAGLNIRDLLRDILRRWRDENYLGMVEGAGMFIEEIHPEGFSLYVHLDVRAVCLLEAIVQHLTNAIICSLAVEFDHATGGERVHLIDLHFEVLDNLLE	decreasing interaction

Variants of: B1
Conditions: with PML
Remark: another data set of the same source

Variant	effect of a mutation on the interaction
MIRCLRLKVEGALEQIFTMAGLNIRDLLRDILRRWRDENYLGMVEGAGMFIEEIHPEGFSLYVHLDVRAVCLLEAIVQHLTNAIICSLAVEFDHATGGERVHAIDLHFEVLDNLLE	disrupting interaction
